Values of other authors in publication PMC4643947.
pKd: −log10 of the molar value. Where two headings read alike, the source gives them in different places.

Key:
p62 (Homo sapiens) [1] = target: p62 (Homo sapiens) (UniProt Q13501)
[2] = target: Nrf2 10mer peptide (Homo sapiens)
p62 (Homo sapiens) [3] = target: p62 (Homo sapiens) (UniProt Q13501); remark: listed apart in the source
[4] = target: Nrf2 14mer peptide (Homo sapiens)

Substance: Keap1 (from UniProt Q14145)
- pKd (p62 (Homo sapiens) [1]): 6.93
- pKd [2]: 7.52
- pKd (p62 (Homo sapiens) [3]): 5.70
- pKd [4]: 7.21
